According to US20240343835A1, “COVALENT HETEROBIVALENT ANTIBODY INHIBITORS AND LIGANDS” (UNIVERSITY OF NOTRE DAME DU LAC, priority 2015, published 2024):
Ends that are not written are not given here.

How the values were obtained:
[1] = target: Trastuzumab (anti-HER2/neu IgG); test: flow cytometry on HER2-expressing cells, FITC signal of cHBL-tagged trastuzumab
[2] = target: Trastuzumab (anti-HER2/neu IgG); test: method not stated in the legend
[3] = target: Trastuzumab (anti-HER2/neu IgG); test: fluorescence quenching
[4] = target: Trastuzumab (anti-HER2/neu IgG); test: fluorescence quenching, ligand titrated into 30 nM trastuzumab; apparent Kd
[5] = target: Trastuzumab (anti-HER2/neu IgG); test: fluorescence quenching: ligand titrated into trastuzumab, F/F0 against Ligand (nM)
[6] = target: Trastuzumab (anti-HER2/neu IgG); test: fluorescence quenching, ligand titrated into 30 nM trastuzumab

B1: Trast-cHBL (Peptide-…) (peptide)
peptide: LLGPYELWELSH
modifications: also: 5(6)-carboxyfluorescein via EG2 spacer, EG6x2 spacer on peptide, branching Lys with 2-naphthaleneacetic acid on alpha-amine and EG4-isothiocyanate on epsilon-amine, attachment sites not given here
[1]
  percent of maximum FITC signal at 1 µM cHBL: 50%

B2: Trastuzumab binding peptide … (peptide)
peptide: LLGPYELWELSH
[2]
  Kd: 1200 nM

B3: Trast-Napht-DNP (peptide)
peptide: LLGPYELWELSH
modifications: also: DNP attached via EG2 spacer, 2-naphthaleneacetic acid attached via ethylene glycol spacer, attachment sites not given here
[3]
  fold increase in observed affinity against the peptide without napht: > 4 fold
[4]
  Kd: 46.6 nM
[5]
  EC50 (read off the curve): 50 nM

B4: Trast-DNP (Trastuzumab binding peptide tagged with DNP) (peptide)
peptide: LLGPYELWELSH
modifications: not fully specified (C-terminus); also: DNP attached via EG2 spacer, attachment site not given here
[6]
  Kd: 200 nM
[5]
  EC50 (read off the curve): 200 nM
